What was measured:
[1] = BS3 cross-linking of lysates, IP, anti-DDR1 blot; settings: glycan lost; control: wild-type DDR1b, no collagen
[2] = reversible biotinylation endocytosis assay, COS1; settings: glycan lost; control: wild-type DDR1b
[3] = cell-surface biotinylation, avidin pulldown, anti-Myc blot; settings: glycan lost; control: wild-type DDR1b, no collagen
[4] = anti-Myc blot of surface, intracellular and lysate fractions; settings: glycan lost; control: wild-type DDR1b
Rat tail collagen type I = Rat tail collagen type I (rat, UniProt P02454 152-1207; P02466 86-1125); experiment: ELISA
Sequence of Rat tail collagen type I (P02454 152-1207, chain 1 of 2): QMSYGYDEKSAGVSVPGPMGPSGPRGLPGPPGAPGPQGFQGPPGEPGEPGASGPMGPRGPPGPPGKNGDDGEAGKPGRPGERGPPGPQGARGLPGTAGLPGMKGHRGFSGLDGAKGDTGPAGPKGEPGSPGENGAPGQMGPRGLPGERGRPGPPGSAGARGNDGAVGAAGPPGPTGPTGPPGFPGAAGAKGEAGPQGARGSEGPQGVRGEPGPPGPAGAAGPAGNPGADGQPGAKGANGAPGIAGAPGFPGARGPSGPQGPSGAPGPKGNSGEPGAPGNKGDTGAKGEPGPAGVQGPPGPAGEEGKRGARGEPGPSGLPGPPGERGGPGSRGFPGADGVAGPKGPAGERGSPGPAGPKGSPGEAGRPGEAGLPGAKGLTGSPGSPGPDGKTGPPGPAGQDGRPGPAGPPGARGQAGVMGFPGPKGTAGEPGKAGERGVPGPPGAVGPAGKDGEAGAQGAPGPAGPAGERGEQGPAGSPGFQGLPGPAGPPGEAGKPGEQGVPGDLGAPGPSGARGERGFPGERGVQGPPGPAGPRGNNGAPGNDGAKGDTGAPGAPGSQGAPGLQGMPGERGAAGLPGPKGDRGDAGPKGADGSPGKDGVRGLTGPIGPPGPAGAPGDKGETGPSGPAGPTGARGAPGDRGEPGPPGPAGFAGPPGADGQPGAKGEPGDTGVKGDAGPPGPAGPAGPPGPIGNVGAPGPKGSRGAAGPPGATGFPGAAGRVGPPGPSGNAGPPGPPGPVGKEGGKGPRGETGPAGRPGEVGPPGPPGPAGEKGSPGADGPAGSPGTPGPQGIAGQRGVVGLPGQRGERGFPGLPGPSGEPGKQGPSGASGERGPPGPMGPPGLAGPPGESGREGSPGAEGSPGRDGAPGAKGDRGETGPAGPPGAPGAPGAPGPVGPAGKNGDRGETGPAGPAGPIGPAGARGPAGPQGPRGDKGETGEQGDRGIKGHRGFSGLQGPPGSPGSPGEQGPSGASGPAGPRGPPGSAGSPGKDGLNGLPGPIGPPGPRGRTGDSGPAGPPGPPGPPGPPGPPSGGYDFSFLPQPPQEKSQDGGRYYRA
Sequence of Rat tail collagen type I (P02466 86-1125, chain 2 of 2): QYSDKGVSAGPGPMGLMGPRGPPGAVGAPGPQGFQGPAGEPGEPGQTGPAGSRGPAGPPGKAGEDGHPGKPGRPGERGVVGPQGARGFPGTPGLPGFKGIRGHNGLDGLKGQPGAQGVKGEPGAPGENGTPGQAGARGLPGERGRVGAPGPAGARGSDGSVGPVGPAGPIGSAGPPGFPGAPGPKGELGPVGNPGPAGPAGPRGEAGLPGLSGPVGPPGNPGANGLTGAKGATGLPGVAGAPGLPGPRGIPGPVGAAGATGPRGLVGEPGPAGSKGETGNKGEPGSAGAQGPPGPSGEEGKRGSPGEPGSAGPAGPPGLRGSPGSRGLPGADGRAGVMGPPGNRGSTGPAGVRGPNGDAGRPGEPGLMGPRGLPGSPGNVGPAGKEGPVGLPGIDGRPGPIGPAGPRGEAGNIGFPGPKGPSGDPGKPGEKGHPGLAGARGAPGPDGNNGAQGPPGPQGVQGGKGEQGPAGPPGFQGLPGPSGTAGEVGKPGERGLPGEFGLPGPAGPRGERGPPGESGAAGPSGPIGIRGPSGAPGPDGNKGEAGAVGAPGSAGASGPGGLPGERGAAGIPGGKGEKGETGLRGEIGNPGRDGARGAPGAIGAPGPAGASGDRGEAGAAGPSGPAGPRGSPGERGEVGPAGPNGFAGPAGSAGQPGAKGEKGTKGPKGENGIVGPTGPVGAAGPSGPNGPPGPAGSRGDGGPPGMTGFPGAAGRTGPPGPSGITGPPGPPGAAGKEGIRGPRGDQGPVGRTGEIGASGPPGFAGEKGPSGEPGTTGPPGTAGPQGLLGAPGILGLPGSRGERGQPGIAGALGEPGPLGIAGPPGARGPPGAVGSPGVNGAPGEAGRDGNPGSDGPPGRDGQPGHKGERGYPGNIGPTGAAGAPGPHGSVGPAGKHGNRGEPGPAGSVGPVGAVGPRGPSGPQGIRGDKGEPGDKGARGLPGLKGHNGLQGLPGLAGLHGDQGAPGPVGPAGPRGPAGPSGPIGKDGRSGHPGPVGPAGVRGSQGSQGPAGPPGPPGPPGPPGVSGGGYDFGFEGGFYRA

B1: Discoidin domain receptor 1 (DDR1b): N211Q (protein)
parent chain: MGPEALSSLLLLLLVASGDADMKGHFDPAKCRYALGMQDRTIPDSDISASSSWSDSTAARHSRLESSDGDGAWCPAGSVFPKEEEYLQVDLQRLHLVALVGTQGRHAGGLGKEFSRSYRLRYSRDGRRWMGWKDRWGQEVISGNEDPEGVVLKDLGPPMVARLVRFYPRADRVMSVCLRVELYGCLWRDGLLSYTAPVGQTMYLSEAVYLNDSTYDGHTVGGLQYGGLGQLADGVVGLDDFRKSQELRVWPGYDYVGWSNHSFSSGYVEMEFEFDRLRAFQAMQVHCNNMHTLGARLPGGVECRFRRGPAMAWEGEPMRHNLGGNLGDPRARAVSVPLGGRVARFLQCRFLFAGPWLLFSEISFISDVVNNSSPALGGTFPPAPWWPPGPPPTNFSSLELEPRGQQPVAKAEGSPTAILIGCLVAIILLLLLIIALMLWRLHWRRLLSKAERRVLEEELTVHLSVPGDTILINNRPGPREPPPYQEPRPRGNPPHSAPCVPNGSALLLSNPAYRLLLATYARPPRGPGPPTPAWAKPTNTQAYSGDYMEPEKPGAPLLPPPPQNSVPHYAEADIVTLQGVTGGNTYAVPALPPGAVGDGPPRVDFPRSRLRFKEKLGEGQFGEVHLCEVDSPQDLVSLDFPLNVRKGHPLLVAVKILRPDATKNARNDFLKEVKIMSRLKDPNIIRLLGVCVQDDPLCMITDYMENGDLNQFLSAHQLEDKAAEGAPGDGQAAQGPTISYPMLLHVAAQIASGMRYLATLNFVHRDLATRNCLVGENFTIKIADFGMSRNLYAGDYYRVQGRAVLPIRWMAWECILMGKFTTASDVWAFGVTLWEVLMLCRAQPFGQLTDEQVIENAGEFFRDQGRQVYLSRPPACPQGLYELMLRCWSRESEQRPPFSQLHRFLAEDALNTV
In the case of B1, the oligomerisation [1] is reported as “increases”, the localisation_or_trafficking [2] is reported as “decreases” and the localisation_or_trafficking [3] is reported as “no change”. For the same binder, the expression_or_secretion [4] was “no change”.

B2: DDR1b ectodomain (ECD) harboring an IgG2 Fc fragment at the C-terminal end, N211Q (Fc fusion)
chain: DADMKGHFDPAKCRYALGMQDRTIPDSDISASSSWSDSTAARHSRLESSDGDGAWCPAGSVFPKEEEYLQVDLQRLHLVALVGTQGRHAGGLGKEFSRSYRLRYSRDGRRWMGWKDRWGQEVISGNEDPEGVVLKDLGPPMVARLVRFYPRADRVMSVCLRVELYGCLWRDGLLSYTAPVGQTMYLSEAVYLQDSTYDGHTVGGLQYGGLGQLADGVVGLDDFRKSQELRVWPGYDYVGWSNHSFSSGYVEMEFEFDRLRAFQAMQVHCNNMHTLGARLPGGVECRFRRGPAMAWEGEPMRHNLGGNLGDPRARAVSVPLGGRVARFLQCRFLFAGPWLLFSEISFISDVVNNSSPALGGTFPPAPWWPPGPPPTNFSSLELEPRGQQPVAKAEGSPT
With B2 the Kd (Rat tail collagen type I) was 4.75 nM.

B3: DDR1b ectodomain (ECD) harboring an IgG2 Fc fragment at the C-terminal end, wild type (Fc fusion)
chain: DADMKGHFDPAKCRYALGMQDRTIPDSDISASSSWSDSTAARHSRLESSDGDGAWCPAGSVFPKEEEYLQVDLQRLHLVALVGTQGRHAGGLGKEFSRSYRLRYSRDGRRWMGWKDRWGQEVISGNEDPEGVVLKDLGPPMVARLVRFYPRADRVMSVCLRVELYGCLWRDGLLSYTAPVGQTMYLSEAVYLNDSTYDGHTVGGLQYGGLGQLADGVVGLDDFRKSQELRVWPGYDYVGWSNHSFSSGYVEMEFEFDRLRAFQAMQVHCNNMHTLGARLPGGVECRFRRGPAMAWEGEPMRHNLGGNLGDPRARAVSVPLGGRVARFLQCRFLFAGPWLLFSEISFISDVVNNSSPALGGTFPPAPWWPPGPPPTNFSSLELEPRGQQPVAKAEGSPT
In the case of B3, the Kd (Rat tail collagen type I) is reported as 3.33 nM.
